{
  "source": "patent CN113999301A",
  "about": "(JIANGSU XINTRUM PHARMACEUTICALS CO LTD, dated 2022)",
  "molecular_target": "新冠原始假病毒的S蛋白 (FNV-SARS-CoV-2-S) (SARS-CoV-2, UniProt P0DTC2 14-1273)",
  "assay": "cell-based or functional assay",
  "data": [
    {"binder": "抗SARS-CoV-2(COVID-19)S蛋白RBD单克隆抗体B15-5-B3 (antibody, V domains shown) VH: EVKFEESGGGLVQPGGSMKLSCAASGFTFSDAWMDWVRQSPEKGLEWVAEIRNKANNHATYYAESVKGRFTISRDDSKSSVYLQMNSLRAEDTGIYYCTPYDYAYPWFWGQGTLVTVSA VL: EIVLTQSPTTMAASPGEKITITCSASSSISSHYLHWYQQKPGFSPKLLIYRSYSLASGFPGRFSGSGSGTSFSLSIGTMEAEDVATYYCQQGSSRITPFGGGTKLEIK", "values": [
      {"measurement": "假病毒中和效应 EC50 (luciferase, HEK293-ACE2 cells)", "value": 0.0369, "unit": "µg/mL"}
    ]}
  ]
}
